From US20240385190A1 (EISAI R AND D MANAGEMENT, published 2024)

B1: KPEP11_12 (antibody, V domains shown)
VH: QSLEESGGRLVTPGTPLTLTCTVSGFSLSSYHMSWVRQAPGKGLEWIGIIYRSGNTYYANWAKGRFTISKTSTTVDLKITSPTTEDTATYFCARESSTFYGMDLWGPGTLVTVSS
VL: YVMMTQTPSSVSAAVGGTVTINCQASQSVYGNNELAWYQQKPGQRPKLLIYRASTLASGVPSRFKGSGSGTEFTLTISDLECADAATYYCLGYKSDDYTFGGGTKVEIKG
notes: Rabbit IgG; also called anti-human EphA4 rabbit monoclonal antibody KPEP11_12
B2: KPEP11_13 (antibody, V domains shown)
VH: QSLEESGGRLVTPGTPLTLTCTVSGFSLSSYHMSWVRQAPGKGLEWIGIIYRSGNTYYANWAKGRFTISKTSTTVDLKITSPTTEDTATYFCARESSTFYGMDLWGPGTLVTVSS
VL: YVMMTQTPSSVSAAVGGTVTINCQASQSVYGNNELAWYQQKPGQRPKLLIYRASTLASGVPSRFKGSGSGTEFTLTISDLECADAATYYCLGYKSDDYTFGGGTKVEIKG
notes: Rabbit IgG; also called anti-human EphA4 rabbit monoclonal antibody KPEP11_13
B3: KPEP11_09 (antibody, V domains shown)
VH: QSVEESGGRLVTPGTPLTLTCTVSGFSLSSYHMSWVRQAPGKGLEWIGIIYRSGNTYSANWAKGRFTISKTSTTVDLKITSPTTEDTATYFCARESSTFYGMDLWGPGTLVTVSS
VL: YVMMTQTPSSVSAAVGGTVTINCQASQSVYGNNELAWYQQKPGQRPKLLIYRASTLASGVPSRFKGSGSGTEFTLTISDLECADAATYYCLGYKSDDYTFGGGTKVEIKG
notes: Rabbit IgG; also called anti-human EphA4 rabbit monoclonal antibody KPEP11_09
B4: KPEP11_01 (antibody, V domains shown)
VH: QSVEESGGRLVTPGTPLTLTCTVSGFSLSSYHMSWVRQAPGKGLEWIGIIYRSGNTYSANWAKGRFTISKTSTTVDLKITSPTTEDTATYFCARESSTFYGMDLWGPGTLVTVSS
VL: YVMMTQTPSSVSAAVGGTVTINCQASQSVYGNNELAWYQQKPGQRPKLLIYRASTLASGVPSRFKGSGSGTEFTLTISDLECADAATYYCLGYKSDDYTFGGGTKVEIKG
notes: also called anti-human EphA4 rabbit monoclonal antibody KPEP11_01
B5: KPEP11_20 (antibody, V domains shown)
VH: QSLEESGGRLVTPGTPLTLTCTVSGFSLNNYYMNWVRQAPGKGLEWIGIIYPDIDTTDYASWVKGRFTISKTSTTVDLKITSPTTEDTATYFCARSDIDYYTTRLDLWGQGTLVTISS
VL: AQVLTQTPSPVSAAVGGTVSINCQSSPSVYNNNWLSWFQQKPGQPPKLLIYGASTLASGVPSRFKGSGSGTQFTLTISDVQCDDAATYYCAGGYDSNSDTAFGGGTELEILG
notes: Rabbit IgG; also called anti-human EphA4 rabbit monoclonal antibody KPEP11_20
B6: KPEP11_02 (antibody, V domains shown)
VH: QSLEESGGRLVTPGGSLTLTCTVSGIDLSSYAMSWVRQAPEKGLEWIGFINNYGTYYASWAKGRFTISKTSTTVDLKVTSLTTEDTATYFCVRGGRSPNYDIVSGDIWGPGTLVTVSS
VL: YVMMTQTPSSVSEPVGGTVTIKCQASQNIYNSLAWYQQKPGQRPKLLIADASELASGVPQRFSGSGSGTQFTLTISDLECADAATYYCQSSSAGDSYVGGFGGGTEVVVKG
notes: Rabbit IgG; also called anti-human EphA4 rabbit monoclonal antibody KPEP11_02
B7: KPEP11_07 (antibody, V domains shown)
VH: QEQLKESGGRLVTPGGSLTLTCTVSGIDLSSYAMSWVRQAPEKGLEWIGFINMYGTYYASWAKGRFTISRTSTTVDLKVTSLTTEDTATYFCVRGGRSPDYDIVSGDIWGPGTLVTVSS
VL: YVMMTQTPSSVSEPVGGTVTIKCQASQNIYNSLAWYQQKPGQRPKLLIADASELASGVPQRFSGSGSGTQFTLTISDLECADAATYYCQSSSAGDSYVGGFGGGTEVVVKG
notes: Rabbit IgG; also called anti-human EphA4 rabbit monoclonal antibody KPEP11_07
B8: KPEP11_05 (antibody, V domains shown)
VH: QSLEESGGRLVTPGGSLTLTCTVSGIDLSSYAMSWVRQAPEKGLEWIGFINNYGTYYASWAKGRFTISKTSTTVDLKVTSLTTEDTATYFCVRGGRSPNYDIVSGDIWGPGTLVTVSS
VL: YVMMTQTPSSVSEPVGGTVTIKCQASQNIYNSLAWYQQKPGQRPKLLIADASELASGVPQRFSGSGSGTQFTLTISDLECADAATYYCQSSSAGDSYVGGFGGGTEVVVKG
notes: Rabbit IgG; also called anti-human EphA4 rabbit monoclonal antibody KPEP11_05

Assays:
Test in all cases: ELISA
[1] = molecular target: T1, human EphA4 extracellular domain-MBP-His protein (human)
T1 construct: also called human EphA4 extracellular domain (ECD); Human EphA4 extracellular domain-MBP-His 10
Protocol: (§1) For the anti-human EphA4 monoclonal antibodies produced in Example 1, evaluation of binding activity to various EphA4 was performed according to the following steps. Mouse anti-6-His antibodies (R&D) were coated on the wells of a 96-well plate (Thermo […]). After incubating at room temperature for 1 hour, the wells were blocked at room temperature for 1 hour with 1% Block Ace (KAC). After washing three times with 0.02% Tween 20/PBS, the wells were seeded with human EphA4 extracellular domain-MBP-His protein, human EphA4 ligand binding domain-MBP-His protein, human EphA4 fibronectin III-type domain 1-MBP-His protein, human EphA4 fibronectin III-type domain 2-MBP-His protein, or MBP-His protein (final concentration 1 nM), and this was incubated at room temperature for 1 hour. After washing three times, anti-human EphA4 rabbit monoclonal antibody (10 pg/mL) was added, and this was incubated at room temperature for 1 hour. After washing three times, horseradish peroxidase labeled goat anti-rabbit IgG polyclonal antibody (abcam) was added, and this was incubated at room temperature for 1 hour. After washing three times, TMBZ (3,3′,5,5′-tetramethylbenzidine, KPL) solution was added to the wells, and this was incubated for four and a half minutes at room temperature. Equal amounts of quenching solution (2 N H₂SO₄, FUJIFILM Wako) were added to the wells, and absorbance at 450 nm and 650 nm were read with a microplate reader (Thermo […]).

[2] = molecular target: human EphA4 ligand binding domain-MBP-His protein (human, UniProt P54764 20-209; P0AEX9 29-392 = MBP)
Protocol: as §1

FN1 = molecular target: FN1
Protocol: as §1

MBP = molecular target: MBP
Protocol: as §1

[3] = molecular target: T2, monkey EphA4 extracellular domain-SEAP-His protein (monkey)
T2 construct: the fusion as a whole has none; not shown: SEAP-His part
T2 sequence (chain, as listed by the source): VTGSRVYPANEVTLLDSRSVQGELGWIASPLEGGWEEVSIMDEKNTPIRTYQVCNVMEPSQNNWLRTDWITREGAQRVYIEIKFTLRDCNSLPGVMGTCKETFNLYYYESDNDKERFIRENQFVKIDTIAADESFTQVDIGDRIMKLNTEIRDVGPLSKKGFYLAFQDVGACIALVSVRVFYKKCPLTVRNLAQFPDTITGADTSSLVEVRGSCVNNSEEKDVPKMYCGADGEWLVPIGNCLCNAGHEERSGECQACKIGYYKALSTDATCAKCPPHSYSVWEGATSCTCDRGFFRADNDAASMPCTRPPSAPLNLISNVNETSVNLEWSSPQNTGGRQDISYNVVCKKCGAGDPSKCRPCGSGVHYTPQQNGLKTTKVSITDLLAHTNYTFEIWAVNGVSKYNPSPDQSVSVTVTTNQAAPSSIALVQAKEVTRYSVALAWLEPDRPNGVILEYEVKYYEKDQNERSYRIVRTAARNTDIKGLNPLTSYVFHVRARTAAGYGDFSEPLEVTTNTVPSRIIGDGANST
Protocol: (§2) For the anti-human EphA4 monoclonal antibodies produced in Example 1, evaluation of binding activity to various EphA4 was performed according to the following steps. Mouse anti-6-His antibodies (R&D) were coated on the wells of a 96-well plate (Thermo […]). After incubating at room temperature for 1 hour, the wells were blocked at 4° C. overnight with 1% Block Ace (KAC). After washing three times with 0.02% Tween 20/PBS, the wells were seeded with mouse EphA4 extracellular domain-SEAP-His protein, rat EphA4 extracellular domain-SEAP-His protein, rabbit EphA4 extracellular domain-SEAP-His protein, monkey EphA4 extracellular domain-SEAP-His protein, human EphA4 extracellular domain-SEAP-His protein, or SEAP-His protein (final concentration 1 nM), and this was incubated at room temperature for 1 hour. After washing three times, anti-human EphA4 rabbit monoclonal antibody (10 pg/mL) was added, and this was incubated at room temperature for about 1 hour. After washing three times, horseradish peroxidase labeled goat anti-rabbit IgG polyclonal antibody (abcam) was added, and this was incubated at room temperature for 1 hour. After washing three times, TMBZ (3,3′,5,5′-tetramethylbenzidine, KPL) solution was added to the wells, and this was incubated for 3 minutes at room temperature. Equal amounts of quenching solution (2 N H₂SO₄, FUJIFILM Wako) were added to the wells, and absorbance at 450 nm and 650 nm were read with a microplate reader (Thermo […]).

Mouse = molecular target: T3, Mouse
T3 construct: also called mouse EphA4 extracellular domain-SEAP-His protein
Protocol: as §2

[4] = molecular target: human EphA4 extracellular domain-SEAP-His protein (human)
human EphA4 extracellular domain-SEAP-His protein (human), sequence (chain, as listed by the source limits assumed): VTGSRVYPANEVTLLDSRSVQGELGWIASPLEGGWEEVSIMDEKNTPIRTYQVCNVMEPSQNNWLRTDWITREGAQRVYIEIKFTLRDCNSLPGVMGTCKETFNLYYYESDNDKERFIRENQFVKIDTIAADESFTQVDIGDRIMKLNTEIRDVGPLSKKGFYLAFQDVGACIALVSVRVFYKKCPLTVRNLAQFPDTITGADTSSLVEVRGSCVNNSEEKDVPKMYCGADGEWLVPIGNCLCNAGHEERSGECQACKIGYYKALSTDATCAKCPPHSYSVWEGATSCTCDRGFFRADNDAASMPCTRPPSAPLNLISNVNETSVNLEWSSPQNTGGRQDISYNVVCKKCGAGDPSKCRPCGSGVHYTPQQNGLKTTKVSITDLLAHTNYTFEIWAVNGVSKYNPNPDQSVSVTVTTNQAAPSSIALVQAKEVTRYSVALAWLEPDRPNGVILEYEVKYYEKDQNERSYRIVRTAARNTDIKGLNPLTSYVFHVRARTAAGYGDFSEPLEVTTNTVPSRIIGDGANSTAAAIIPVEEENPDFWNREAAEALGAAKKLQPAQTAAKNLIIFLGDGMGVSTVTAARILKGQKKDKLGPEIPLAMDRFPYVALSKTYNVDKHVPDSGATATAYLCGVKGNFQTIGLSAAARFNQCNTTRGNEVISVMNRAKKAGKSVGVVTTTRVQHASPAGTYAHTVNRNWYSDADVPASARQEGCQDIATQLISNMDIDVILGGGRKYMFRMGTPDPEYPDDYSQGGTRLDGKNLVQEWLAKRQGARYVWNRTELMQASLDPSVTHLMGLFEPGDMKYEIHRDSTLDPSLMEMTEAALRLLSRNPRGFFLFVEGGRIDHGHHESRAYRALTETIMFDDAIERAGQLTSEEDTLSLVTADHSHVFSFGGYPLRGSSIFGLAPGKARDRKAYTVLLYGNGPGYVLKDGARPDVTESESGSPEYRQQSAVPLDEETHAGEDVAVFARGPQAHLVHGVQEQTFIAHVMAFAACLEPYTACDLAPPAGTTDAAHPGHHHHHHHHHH
Protocol: as §2

SEAP = molecular target: T4, SEAP
T4 construct: negative control antigen; also called SEAP-His protein
Protocol: as §2

Rat = molecular target: T5, Rat
T5 construct: also called rat EphA4 extracellular domain-SEAP-His protein
Protocol: as §2

Rabbit = molecular target: T6, Rabbit
T6 construct: also called rabbit EphA4 extracellular domain-SEAP-His protein
Protocol: as §2

FN2 = molecular target: FN2
Protocol: as §1

Binder | absorbance [1] | absorbance [2] | absorbance (FN1) | absorbance (MBP) | absorbance [3] | absorbance (Mouse) | absorbance [4] | absorbance (SEAP) | absorbance (Rat) | absorbance (Rabbit) | absorbance (FN2)
B1 | 1.29 | 0.283 | 0.255 | 0.302 | 1.19 | 0.059 | 1.22 | 0.067 | 0.054 | 0.055 | 
B2 | 1.31 | 0.348 | 0.318 | 0.402 | 1.17 | 0.082 | 1.18 | 0.099 | 0.086 | 0.083 | 0.36
B3 | 1.24 |  | 0.24 | 0.291 | 1.15 | 0.079 | 1.14 | 0.07 | 0.064 |  | 0.242
B4 |  | 0.236 | 0.228 | 0.231 | 1.18 | 0.049 | 1.21 | 0.052 | 0.042 | 0.045 | 0.235
B5 | 1.26 | 1.42 | 0.207 | 0.274 | 1.15 | 0.052 | 1.16 | 0.067 | 0.062 | 0.046 | 0.238
B6 | 1.35 | 1.32 | 0.213 |  | 1.2 | 0.048 | 1.25 | 0.071 |  | 0.04 | 0.227
B7 | 1.42 | 1.39 | 0.226 | 0.24 | 1.18 | 0.045 | 1.22 | 0.05 | 0.044 |  | 0.22
B8 | 1.43 | 1.32 | 0.213 | 0.239 | 1.24 | 0.045 |  | 0.043 | 0.043 | 0.035 | 0.225
